In publication PMC2807882, “Conservation of DNA-binding specificity and oligomerisation properties within the p53 family” (BMC Genomics, 2009):

Tests used:
[1] = target: the molecule itself; test: AUC; sedimentation velocity with fluorescence detection, FlAsH-labelled protein at 5-500 nM (monomer); 150 mM NaCl, 25 mM phosphate pH 7.2, 10% glycerol, BSA 0.2 mg/mL, 1 mM β-mercaptoethanol, 10°C; dimer to monomers; Kd expressed in concentration of monomer
[2] = target: the molecule itself; test: AUC; sedimentation velocity with fluorescence detection, FlAsH-labelled protein at 5-500 nM (monomer); 150 mM NaCl, 25 mM phosphate pH 7.2, 10% glycerol, BSA 0.2 mg/mL, 1 mM β-mercaptoethanol, 10°C; tetramer to dimers; Kd expressed in concentration of monomer
[3] = target: the molecule itself; test: AUC; sedimentation velocity with fluorescence detection, FlAsH-labelled protein at 5-500 nM; 150 mM NaCl, 25 mM phosphate pH 7.2, 10% glycerol, BSA 0.2 mg/mL, 1 mM beta-mercaptoethanol, 10°C; tetramer to dimers; Kd expressed in concentration of monomer
[4] = target: the molecule itself; test: AUC; sedimentation velocity with fluorescence detection, FlAsH-labelled protein at 5-500 nM (also at 60 k rpm); 150 mM NaCl, 25 mM phosphate pH 7.2, 10% glycerol, BSA 0.2 mg/mL, 1 mM beta-mercaptoethanol, 10°C; dimer to monomers; Kd expressed in concentration of monomer

Row | Protein | Kd [2] | stoichiometry N [3] | also measured
1 | Human p63 isoform ΔNp63β, with C-terminal FlAsH tag, FlAsH-labelled (natural protein, UniProt Q9H3D4-4 1-461, looked up, FlAsH (from FlAsH-EDT2, an arsenic derivative of fluorescein) on the C-terminal CCPGCC tetra-cysteine tag, the whole isoform is surmised; also called ΔNp63β-FlAsH; not shown: 6xHis, N-terminal, cleaved; lipoyl domain, N-terminal, cleaved; FlAsH-tag CCPGCC, C-terminal, kept) MLYLENNAQTQFSEPQYTNLGLLNSMDQQIQNGSSSTSPYNTDHAQNSVTAPSPYAQPSSTFDALSPSPAIPSNTDYPGPHSFDVSFQQSSTAKSATWTYSTELKKLYCQIAKTCPIQIKVMTPPPQGAVIRAMPVYKKAEHVTEVVKRCPNHELSREFNEGQIAPPSHLIRVEGNSHAQYVEDPITGRQSVLVPYEPPQVGTEFTTVLYNFMCNSSCVGGMNRRPILIIVTLETRDGQVLGRRCFEARICACPGRDRKADEDSIRKQQVSDSTKNGDGTKRPFRQNTHGIQMTSIKKRRSPDDELLYLPVRGRETYEMLLKIKESLELMQYLPQHTIETYRQQQQQQHQHLLQKQTSIQSPSSYGNSSPPLNKMNSMNKLPSVSQLINPQQRNALTPTTIPDGMGANIPMMGTHMPMAGDMNGLSPTQALPPPLSMPSTSHCTPPPPYPTDCSIVRIWQV | 12.2 nM | – | Kd [1]: 9.3 nM
2 | human ΔNp63β with C-terminal FlAsH tag, labelled with FlAsH (natural protein, UniProt Q9H3D4-4 1-461, looked up, FlAsH (from FlAsH-EDT2, Lumio Green) on the C-terminal CCPGCC tetra-cysteine tag, also called human p63; not shown: FlAsH tag CCPGCC, C-terminal, kept; 6xHis, N-terminal, cleaved; lipoyl domain, N-terminal, cleaved) MLYLENNAQTQFSEPQYTNLGLLNSMDQQIQNGSSSTSPYNTDHAQNSVTAPSPYAQPSSTFDALSPSPAIPSNTDYPGPHSFDVSFQQSSTAKSATWTYSTELKKLYCQIAKTCPIQIKVMTPPPQGAVIRAMPVYKKAEHVTEVVKRCPNHELSREFNEGQIAPPSHLIRVEGNSHAQYVEDPITGRQSVLVPYEPPQVGTEFTTVLYNFMCNSSCVGGMNRRPILIIVTLETRDGQVLGRRCFEARICACPGRDRKADEDSIRKQQVSDSTKNGDGTKRPFRQNTHGIQMTSIKKRRSPDDELLYLPVRGRETYEMLLKIKESLELMQYLPQHTIETYRQQQQQQHQHLLQKQTSIQSPSSYGNSSPPLNKMNSMNKLPSVSQLINPQQRNALTPTTIPDGMGANIPMMGTHMPMAGDMNGLSPTQALPPPLSMPSTSHCTPPPPYPTDCSIVRIWQV | – | 4 | fold weaker self-association (dimer-tetramer equilibrium) than Dmp53, Drp53 and ΔNp73β [3]: ~5 fold; fold weaker primary dimer (monomer-dimer equilibrium) than human p53 [4]: 9 fold
3 | Human p73 isoform ΔNp73β, with C-terminal FlAsH tag, FlAsH-labelled (natural protein, UniProt O15350-9 1-450, looked up, FlAsH (from FlAsH-EDT2, an arsenic derivative of fluorescein) on the C-terminal CCPGCC tetra-cysteine tag, the whole isoform is surmised; also called ΔNp73β-FlAsH; not shown: 6xHis, N-terminal, cleaved; lipoyl domain, N-terminal, cleaved; FlAsH-tag CCPGCC, C-terminal, kept) MLYVGDPARHLATAQFNLLSSTMDQMSSRAASASPYTPEHAASVPTHSPYAQPSSTFDTMSPAPVIPSNTDYPGPHHFEVTFQQSSTAKSATWTYSPLLKKLYCQIAKTCPIQIKVSTPPPPGTAIRAMPVYKKAEHVTDVVKRCPNHELGRDFNEGQSAPASHLIRVEGNNLSQYVDDPVTGRQSVVVPYEPPQVGTEFTTILYNFMCNSSCVGGMNRRPILIIITLEMRDGQVLGRRSFEGRICACPGRDRKADEDHYREQQALNESSAKNGAASKRAFKQSPPAVPALGAGVKKRRHGDEDTYYLQVRGRENFEILMKLKESLELMELVPQPLVDSYRQQQQLLQRPSHLQPPSYGPVLSPMNKVHGGMNKLPSVNQLVGQPPPHSSAATPNLGPVGPGMLNNHGHAVPANGEMSSSHSAQSMVSGSHCTPPPPYHADPSLVRTWGP | 2.4 nM | – | Kd [1]: 5.7 nM
4 | human ΔNp73β with C-terminal FlAsH tag, labelled with FlAsH (natural protein, UniProt O15350-9 1-450, looked up, FlAsH (from FlAsH-EDT2, Lumio Green) on the C-terminal CCPGCC tetra-cysteine tag, also called human p73; not shown: FlAsH tag CCPGCC, C-terminal, kept; 6xHis, N-terminal, cleaved; lipoyl domain, N-terminal, cleaved) MLYVGDPARHLATAQFNLLSSTMDQMSSRAASASPYTPEHAASVPTHSPYAQPSSTFDTMSPAPVIPSNTDYPGPHHFEVTFQQSSTAKSATWTYSPLLKKLYCQIAKTCPIQIKVSTPPPPGTAIRAMPVYKKAEHVTDVVKRCPNHELGRDFNEGQSAPASHLIRVEGNNLSQYVDDPVTGRQSVVVPYEPPQVGTEFTTILYNFMCNSSCVGGMNRRPILIIITLEMRDGQVLGRRSFEGRICACPGRDRKADEDHYREQQALNESSAKNGAASKRAFKQSPPAVPALGAGVKKRRHGDEDTYYLQVRGRENFEILMKLKESLELMELVPQPLVDSYRQQQQLLQRPSHLQPPSYGPVLSPMNKVHGGMNKLPSVNQLVGQPPPHSSAATPNLGPVGPGMLNNHGHAVPANGEMSSSHSAQSMVSGSHCTPPPPYHADPSLVRTWGP | – | 4 | fold weaker primary dimer (monomer-dimer equilibrium) than human p53 [4]: 6 fold
5 | Danio rerio p53, full length, with C-terminal FlAsH tag, FlAsH-labelled (natural protein, UniProt P79734 1-373, looked up, FlAsH (from FlAsH-EDT2, an arsenic derivative of fluorescein) on the C-terminal CCPGCC tetra-cysteine tag, p53 of zebrafish (Danio rerio), full-length protein, from a Mammalian Gene Collection clone; also called Drp53; Drp53-FlAsH; not shown: 6xHis, N-terminal, cleaved; lipoyl domain, N-terminal, cleaved; FlAsH-tag CCPGCC, C-terminal, kept) MAQNDSQEFAELWEKNLIIQPPGGGSCWDIINDEEYLPGSFDPNFFENVLEEQPQPSTLPPTSTVPETSDYPGDHGFRLRFPQSGTAKSVTCTYSPDLNKLFCQLAKTCPVQMVVDVAPPQGSVVRATAIYKKSEHVAEVVRRCPHHERTPDGDNLAPAGHLIRVEGNQRANYREDNITLRHSVFVPYEAPQLGAEWTTVLLNYMCNSSCMGGMNRRPILTIITLETQEGQLLGRRSFEVRVCACPGRDRKTEESNFKKDQETKTMAKTTTGTKRSLVKESSSATLRPEGSKKAKGSSSDEEIFTLQVRGRERYEILKKLNDSLELSDVVPASDAEKYRQKFMTKNKKENRESSEPKQGKKLMVKDEGRSDSD | 3.6 nM | – | –
6 | Drp53 (zebrafish p53) with C-terminal FlAsH tag, labelled with FlAsH (natural protein, zebrafish (Danio rerio), UniProt P79734 1-373, looked up, FlAsH (from FlAsH-EDT2, Lumio Green) on the C-terminal CCPGCC tetra-cysteine tag, not shown: FlAsH tag CCPGCC, C-terminal, kept; 6xHis, N-terminal, cleaved; lipoyl domain, N-terminal, cleaved) MAQNDSQEFAELWEKNLIIQPPGGGSCWDIINDEEYLPGSFDPNFFENVLEEQPQPSTLPPTSTVPETSDYPGDHGFRLRFPQSGTAKSVTCTYSPDLNKLFCQLAKTCPVQMVVDVAPPQGSVVRATAIYKKSEHVAEVVRRCPHHERTPDGDNLAPAGHLIRVEGNQRANYREDNITLRHSVFVPYEAPQLGAEWTTVLLNYMCNSSCMGGMNRRPILTIITLETQEGQLLGRRSFEVRVCACPGRDRKTEESNFKKDQETKTMAKTTTGTKRSLVKESSSATLRPEGSKKAKGSSSDEEIFTLQVRGRERYEILKKLNDSLELSDVVPASDAEKYRQKFMTKNKKENRESSEPKQGKKLMVKDEGRSDSD | – | 4 | –
7 | Xenopus laevis p53, full length, with C-terminal FlAsH tag, FlAsH-labelled (natural protein, UniProt P07193 1-363, looked up, FlAsH (from FlAsH-EDT2, an arsenic derivative of fluorescein) on the C-terminal CCPGCC tetra-cysteine tag, p53 of frog (Xenopus laevis), full-length protein, from a Mammalian Gene Collection clone; also called Xlp53; Xlp53-FlAsH; not shown: 6xHis, N-terminal, cleaved; lipoyl domain, N-terminal, cleaved; FlAsH-tag CCPGCC, C-terminal, kept) MEPSSETGMDPPLSQETFEDLWSLLPDPLQTVTCRLDNLSEFPDYPLAADMTVLQEGLMGNAVPTVTSCAVPSTDDYAGKYGLQLDFQQNGTAKSVTCTYSPELNKLFCQLAKTCPLLVRVESPPPRGSILRATAVYKKSEHVAEVVKRCPHHERSVEPGEDAAPPSHLMRVEGNLQAYYMEDVNSGRHSVCVPYEGPQVGTECTTVLYNYMCNSSCMGGMNRRPILTIITLETPQGLLLGRRCFEVRVCACPGRDRRTEEDNYTKKRGLKPSGKRELAHPPSSEPPLPKKRLVVVDDDEEIFTLRIKGRSRYEMIKKLNDALELQESLDQQKVTIKCRKCRDEIKPKKGKKLLVKDEQPDSE | 27.6 nM | – | –
8 | Xlp53 (Xenopus laevis p53) with C-terminal FlAsH tag, labelled with FlAsH (natural protein, frog (Xenopus laevis), UniProt P07193 1-363, looked up, FlAsH (from FlAsH-EDT2, Lumio Green) on the C-terminal CCPGCC tetra-cysteine tag, also called frog p53; not shown: FlAsH tag CCPGCC, C-terminal, kept; 6xHis, N-terminal, cleaved; lipoyl domain, N-terminal, cleaved) MEPSSETGMDPPLSQETFEDLWSLLPDPLQTVTCRLDNLSEFPDYPLAADMTVLQEGLMGNAVPTVTSCAVPSTDDYAGKYGLQLDFQQNGTAKSVTCTYSPELNKLFCQLAKTCPLLVRVESPPPRGSILRATAVYKKSEHVAEVVKRCPHHERSVEPGEDAAPPSHLMRVEGNLQAYYMEDVNSGRHSVCVPYEGPQVGTECTTVLYNYMCNSSCMGGMNRRPILTIITLETPQGLLLGRRCFEVRVCACPGRDRRTEEDNYTKKRGLKPSGKRELAHPPSSEPPLPKKRLVVVDDDEEIFTLRIKGRSRYEMIKKLNDALELQESLDQQKVTIKCRKCRDEIKPKKGKKLLVKDEQPDSE | – | 4 | fold weaker self-association (dimer-tetramer equilibrium) than Dmp53, Drp53 and ΔNp73β [3]: ~10 fold
9 | Drosophila melanogaster p53, full length, with C-terminal FlAsH tag, FlAsH-labelled (natural protein, UniProt Q9N6D8 1-385, looked up, FlAsH (from FlAsH-EDT2, an arsenic derivative of fluorescein) on the C-terminal CCPGCC tetra-cysteine tag, p53 of Drosophila melanogaster, full-length protein, amplified from a cDNA library; also called Dmp53; Dmp53-FlAsH; not shown: 6xHis, N-terminal, cleaved; lipoyl domain, N-terminal, cleaved; FlAsH-tag CCPGCC, C-terminal, kept) MYISQPMSWHKESTDSEDDSTEVDIKEDIPKTVEVSGSELTTEPMAFLQGLNSGNLMQFSQQSVLREMMLQDIQIQANTLPKLENHNIGGYCFSMVLDEPPKSLWMYSIPLNKLYIRMNKAFNVDVQFKSKMPIQPLNLRVFLCFSNDVSAPVVRCQNHLSVEPLTANNAKMRESLLRSENPNSVYCGNAQGKGISERFSVVVPLNMSRSVTRSGLTRQTLAFKFVCQNSCIGRKETSLVFCLEKACGDIVGQHVIHVKICTCPKRDRIQDERQLNSKKRKSVPEAAEEDEPSKVRRCIAIKTEDTESNDSRDCDDSAAEWNVSRTPDGDYRLAITCPNKEWLLQSIEGMIKEAAAEVLRNPNQENLRRHANKLLSLKKRAYELP | 1.7 nM | – | –
10 | Dmp53 (Drosophila melanogaster p53) with C-terminal FlAsH tag, labelled with FlAsH (natural protein, fruit fly (Drosophila melanogaster), UniProt Q9N6D8 1-385, looked up, FlAsH (from FlAsH-EDT2, Lumio Green) on the C-terminal CCPGCC tetra-cysteine tag, amplified from a cDNA library (Simon Bullock); also called fruit fly p53; not shown: FlAsH tag CCPGCC, C-terminal, kept; 6xHis, N-terminal, cleaved; lipoyl domain, N-terminal, cleaved) MYISQPMSWHKESTDSEDDSTEVDIKEDIPKTVEVSGSELTTEPMAFLQGLNSGNLMQFSQQSVLREMMLQDIQIQANTLPKLENHNIGGYCFSMVLDEPPKSLWMYSIPLNKLYIRMNKAFNVDVQFKSKMPIQPLNLRVFLCFSNDVSAPVVRCQNHLSVEPLTANNAKMRESLLRSENPNSVYCGNAQGKGISERFSVVVPLNMSRSVTRSGLTRQTLAFKFVCQNSCIGRKETSLVFCLEKACGDIVGQHVIHVKICTCPKRDRIQDERQLNSKKRKSVPEAAEEDEPSKVRRCIAIKTEDTESNDSRDCDDSAAEWNVSRTPDGDYRLAITCPNKEWLLQSIEGMIKEAAAEVLRNPNQENLRRHANKLLSLKKRAYELP | – | 4 | –
